Measurements from patent US20020012949A1, “Assay systems for leptin-enhancing agents” (priority 1997, published 2002).

Target: T1, OB-RY986F (Homo sapiens, UniProt P48357, Y986F)
T1 construct: cells transfected with the full-length OB-R constructs; expressed in transfected cells; host or cells: COS-7
T1 sequence (P48357 22-1165 Y986F): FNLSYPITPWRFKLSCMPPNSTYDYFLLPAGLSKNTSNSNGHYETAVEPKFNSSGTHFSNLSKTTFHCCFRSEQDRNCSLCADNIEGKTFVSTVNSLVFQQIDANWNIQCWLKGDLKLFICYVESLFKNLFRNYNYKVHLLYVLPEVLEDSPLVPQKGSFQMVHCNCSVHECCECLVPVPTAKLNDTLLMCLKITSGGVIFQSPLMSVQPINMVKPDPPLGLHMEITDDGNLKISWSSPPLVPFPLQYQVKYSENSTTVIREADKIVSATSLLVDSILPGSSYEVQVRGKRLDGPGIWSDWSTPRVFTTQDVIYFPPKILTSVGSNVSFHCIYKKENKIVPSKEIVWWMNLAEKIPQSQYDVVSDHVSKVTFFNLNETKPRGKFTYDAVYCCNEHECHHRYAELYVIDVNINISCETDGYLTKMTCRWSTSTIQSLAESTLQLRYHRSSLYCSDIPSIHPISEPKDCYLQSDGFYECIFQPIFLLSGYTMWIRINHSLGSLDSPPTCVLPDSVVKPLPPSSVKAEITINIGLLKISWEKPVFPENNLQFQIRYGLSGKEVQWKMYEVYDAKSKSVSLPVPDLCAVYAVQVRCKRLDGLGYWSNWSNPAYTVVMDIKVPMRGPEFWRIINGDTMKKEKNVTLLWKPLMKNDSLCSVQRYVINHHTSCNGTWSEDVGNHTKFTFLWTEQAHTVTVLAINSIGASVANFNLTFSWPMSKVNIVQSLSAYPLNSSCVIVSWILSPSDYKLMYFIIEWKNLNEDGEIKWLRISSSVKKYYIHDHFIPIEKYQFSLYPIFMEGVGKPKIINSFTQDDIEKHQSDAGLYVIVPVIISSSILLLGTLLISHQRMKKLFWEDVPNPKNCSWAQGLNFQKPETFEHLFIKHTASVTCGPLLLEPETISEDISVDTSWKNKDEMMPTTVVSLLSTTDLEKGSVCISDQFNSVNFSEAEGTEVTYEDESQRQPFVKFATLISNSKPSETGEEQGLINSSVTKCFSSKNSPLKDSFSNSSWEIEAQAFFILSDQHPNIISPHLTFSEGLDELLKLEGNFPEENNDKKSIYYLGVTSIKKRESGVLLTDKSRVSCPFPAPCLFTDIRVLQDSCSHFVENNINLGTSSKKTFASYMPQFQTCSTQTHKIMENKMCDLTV
Test: Luciferase reporter gene assay (3(G3)-Cy6-LUC), leptin stimulation of COS cells expressing mutant OB-RY986F
Assay type: cell-based
Conditions: mutant receptor OB-RY986F, 100 ng/ml leptin for 24 hours
Method: The cytoplasmic domain and full-length human OB-R was cloned by PCR using human fetal liver and adipocyte cDNA (Clontech) and cloned into the expression vectors pCMX and pMT21. Chimeric receptors were constructed by fusing the extracellular domain and transmembrane domain of TrkC (amino acids 1 to 458) to the cytoplasmic domain of OB-R (amino acids 865-1165). A triple myc epitope tag was added at the C-terminus of all OB-R constructs (18). Truncation and point mutant constructs were generated by PCR and the sequences of all constructs were verified. Expression constructs were transfected into COS-7 cells using lipofectamine (GIBCO-BRL); 36-48 hours after transfection, cells were starved for either 2 hour,s for chimeric receptors or overnight for full-length receptors prior to stimulation.
Expression constructs (1 μg) for OB-R, OB-RY1141F, OB-RY986F, OB-RY1078, 1079F, and OB-RY986, 1141F were co-transfected with 1 μg of 3(G3)-Cy6-LUC and 0.1 μg of pCMX.LacZ into COS-7 cells (6-well dishes) using lipofectamine. The day after transfection, media was changed to serum-free OptiMEM (GIBCO-BRL) and then treated with 100 ng/ml murine leptin (PeproTech) or human leptin (R&D Systems) for 24 hours. […] Luciferase and β-galactosidase activities were measured in cell lysates (30) and luciferase activity was normalized to β-galactosidase activity to control for transfection differences. […]

- increase in luciferase activity: 20 fold
Substance: leptin: the product of the obese gene, secreted by adipocytes; ligand of OB-R
